This assay addresses T1, mouse DR3, full-length, expressed on HEK293 NFkB-luciferase reporter cells (mouse).
T1 chain: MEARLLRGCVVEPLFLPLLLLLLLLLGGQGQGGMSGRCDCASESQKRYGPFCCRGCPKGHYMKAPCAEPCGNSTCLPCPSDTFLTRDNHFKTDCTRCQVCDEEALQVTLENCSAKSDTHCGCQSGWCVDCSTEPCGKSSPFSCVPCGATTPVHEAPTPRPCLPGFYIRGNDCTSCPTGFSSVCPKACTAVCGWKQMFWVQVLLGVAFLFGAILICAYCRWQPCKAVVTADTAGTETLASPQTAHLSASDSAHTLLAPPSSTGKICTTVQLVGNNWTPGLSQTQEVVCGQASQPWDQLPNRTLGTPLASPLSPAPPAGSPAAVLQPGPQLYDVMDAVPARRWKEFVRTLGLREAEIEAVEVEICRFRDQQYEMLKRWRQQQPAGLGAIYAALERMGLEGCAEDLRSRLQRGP
As to the kind of experiment: cell-based or functional assay.

B1: full length rat TL1A expressed on HEK293 cells (ligand)
chain: MAEELGLGFGEAVPVEMLPEGCRHRREARTGLAARSKACLALTCCLLSFPILAGLSTLLMTGQLRIPGKDCMFPTVTEERSAPSAQPVYTPSRDKPKAHLTIMRQTPVPHLKNELAALHWENNLGMAFTKNRMNYTNKFLVIPESGDYFIYSQITFRGTTSECGDISRVRRPKKPDSITVVITKVADSYPEPAHLLTGTKSVCEISSNWFQPIYLGAMFSLEEGDRLMVNVSDISLVDYTKEDKTFFGAFLI
Regarding B1, the “EC50 (cells), NFkB-luciferase reporter” value came out at 9770 cells.

The values are drawn from patent US20140120109A1 (Regeneron, published 2014).
